Source: IntAct's records for PubMed 15020713

B1: Rabenosyn-5 (Homo sapiens), Q9H1K0 (parent)
chain: MASLDDPGEVREGFLCPLCLKDLQSFYQLHSHYEEEHSGEDRDVKGQIKSLVQKAKKAKDRLLKREGDDRAESGTQGYESFSYGGVDPYMWEPQELGAVRSHLSDFKKHRAARIDHYVVEVNKLIIRLEKLTAFDRTNTESAKIRAIEKSVVPWVNDQDVPFCPDCGNKFSIRNRRHHCRLCGSIMCKKCMELISLPLANKLTSASKESLSTHTSPSQSPNSVHGSRRGSISSMSSVSSVLDEKDDDRIRCCTHCKDTLLKREQQIDEKEHTPDIVKLYEKLRLCMEKVDQKAPEYIRMAASLNAGETTYSLEHASDLRVEVQKVYELIDALSKKILTLGLNQDPPPHPSNLRLQRMIRYSATLFVQEKLLGLMSLPTKEQFEELKKKRKEEMERKRAVERQAALESQRRLEERQSGLASRAANGEVASLRRGPAPLRKAEGWLPLSGGQGQSEDSDPLLQQIHNITSFIRQAKAAGRMDEVRTLQENLRQLQDEYDQQQTEKAIELSRRQAEEEDLQREQLQMLRERELEREREQFRVASLHTRTRSLDFREIGPFQLEPSREPRTHLAYALDLGSSPVPSSTAPKTPSLSSTQPTRVWSGPPAVGQERLPQSSMPQQHEGPSLNPFDEEDLSSPMEEATTGPPAAGVSLDPSARILKEYNPFEEEDEEEEAVAGNPFIQPDSPAPNPFSEEDEHPQQRLSSPLVPGNPFEEPTCINPFEMDSDSGPEAEEPIEEELLLQQIDNIKAYIFDAKQCGRLDEVEVLTENLRELKHTLAKQKGGTD
partner: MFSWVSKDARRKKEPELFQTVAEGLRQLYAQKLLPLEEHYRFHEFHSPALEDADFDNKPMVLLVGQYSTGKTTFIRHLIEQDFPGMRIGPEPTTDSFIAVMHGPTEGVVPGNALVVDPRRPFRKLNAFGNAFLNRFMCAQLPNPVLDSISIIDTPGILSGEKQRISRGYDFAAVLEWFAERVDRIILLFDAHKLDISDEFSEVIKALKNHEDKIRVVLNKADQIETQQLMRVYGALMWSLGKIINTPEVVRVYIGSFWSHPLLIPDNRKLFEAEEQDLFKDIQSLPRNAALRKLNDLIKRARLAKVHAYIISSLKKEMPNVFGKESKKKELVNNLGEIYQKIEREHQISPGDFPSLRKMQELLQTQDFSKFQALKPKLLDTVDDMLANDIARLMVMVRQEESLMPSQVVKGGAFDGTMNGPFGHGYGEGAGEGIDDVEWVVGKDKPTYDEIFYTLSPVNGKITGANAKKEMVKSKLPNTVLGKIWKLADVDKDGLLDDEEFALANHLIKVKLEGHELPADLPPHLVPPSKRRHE
B2: EH domain-containing protein 1 (Homo sapiens), Q9H4M9 (parent)
chain: B1 partner
partner: B1 chain

Variants of: B1
Settings: with ehd1_human EHD1, Q9H4M9

| Variant | effect of a mutation on the interaction |
| --- | --- |
| N626A;F628A | decreasing interaction strength |
| N626A;F628A;N662A;F664A | disrupting interaction strength |
| N662A;F664A | decreasing interaction strength |

Variants of: B2
Settings: with rbns5_human RBSN

| Variant | effect of a mutation on the interaction |
| --- | --- |
| MFSWVSKDARRKKEPELFQTVAEGLRQLYAQKLLPLEEHYRFHEFHSPALEDADFDNKPMVLLVGQYSTGKTTFIRHLIEQDFPGMRIGPEPTTDSFIAVMHGPTEGVVPGNALVVDPRRPFRKLNAFGNAFLNRFMCAQLPNPVLDSISIIDTPGILSGEKQRISRGYDFAAVLEWFAERVDRIILLFDAHKLDISDEFSEVIKALKNHEDKIRVVLNKADQIETQQLMRVYGALMWSLGKIINTPEVVRVYIGSFWSHPLLIPDNRKLFEAEEQDLFKDIQSLPRNAALRKLNDLIKRARLAKVHAYIISSLKKEMPNVFGKESKKKELVNNLGEIYQKIEREHQISPGDFPSLRKMQELLQTQDFSKFQALKPKLLDTVDDMLANDIARLMVMVRQEESLMPSQVVKGGAFDGTMNGPFGHGYGEGAGEGIDDVEWVVGKDKPTYDEIFYTLSPVNGKITGANAKKEMVKSKLPNTVLGKIAKLADVDKDGLLDDEEFALANHLIKVKLEGHELPADLPPHLVPPSKRRHE [W485A] | disrupting interaction |
